In patent US5856148A, “Materials and methods for biosynthesis of serine and serine-related products” (priority 1991, dated 1999):

System: 3-phosphoglycerate dehydrogenase (PGD)
Test: assay of PGD activity (relative catalytic activity)
Assay type: biochemical, E. coli
Text: While not critical to the invention, the assay of PGD activity is generally necessary in order to establish the degree of serine sensitivity of the altered enzyme. As is well known in the art, enzyme activity is a function of the total number of enzyme molecules and the catalytic activity of each molecule. Thus, in comparing the catalytic activity of PGD feedback variants, steps must be taken to adequately control for the relative number of PGD molecules for samples in which relative catalytic activity is to be compared. There are a number of ways in which this may be accomplished. However, since it is difficult to adequately establish the level of gene expression in cells transformed with truncated serA genes (due to decreased viability), the most suitable way to compare PGD activity produced from various constructs and the wild type is to chromosomally integrate the altered serA gene containing standard regulatory elements in a single copy, followed by harvesting the transformants and determination of the relative catalytic activity as compared to PGD from wild type cells.
Any method suitable for the measurement of PGD activity may be employed. PGD activity may be measured through detection of either the forward or the reverse reaction by the method of John C. McKitrick and Lewis I. Pizer, J. Bacteriol., 141:235-245 (1980). […]

B1: WT: wild-type E. coli 3-phosphoglycerate dehydrogenase (serA), C-terminal sequence SEQ ID NO: 2 (protein, UniProt P0A9T0 2-410, looked up)
D-3-phosphoglycerate …: AKVSLEKDKIKFLLVEGVHQKALESLRAAGYTNIEFHKGALDDEQLKESIRDAHFIGLRSRTHLTEDVINAAEKLVAIGCFCIGTNQVDLDAAAKRGIPVFNAPFSNTRSVAELVIGELLLLLRGVPEANAKAHRGVWNKLAAGSFEARGKKLGIIGYGHIGTQLGILAESLGMYVYFYDIENKLPLGNATQVQHLSDLLNMSDVVSLHVPENPSTKNMMGAKEISLMKPGSLLINASRGTVVDIPALCDALASKHLAGAAIDVFPTEPATNSDPFTSPLCEFDNVLLTPHIGGSTQEAQENIGLEVAGKLIKYSDNGSTLSAVNFPEVSLPLHGGRRLMHIHENRPGVLTALNKIFAEQGVNIAAQYLQTSAQMGYVVIDIEADEDVAEKALQAMKAIPGTIRARLLY
Units (relative catalytic activity) (Table 1, following chromosomal integration of the construct): 0.05 Units
Units (Table 1A, wildtype and mutated serA alleles): 0.05 Units
